From the nanobody polyreactivity screen of Harvey et al. (2022) come the findings set out here.

The nature of this data set: yeast display, Sf9 membrane polyspecificity reagent, FACS + sequencing; frameworks hold sequencing errors. In outline: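 Using colony PCR, genes from sorted yeast display clones were amplified, then sequenced on MiSeq at 2 × 250 and filtered by CDR length. The clones had been stained with 10% biotinylated, detergent-solubilized Sf9 membrane reagent for 1 hour at 4 °C and sorted by FACS into low and high (top ~1%) gates on anti-HA and streptavidin fluorescence. Polyreactivity labels come from the gate of origin.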
With “QVQLVESGGGLVQAGGSLRLSCAASGFTFGANVMGWYRPAPGKERELVAGITWSGDSTYYADSVKGRFTISRDNAKNTVYLQMNSLKPEDTAVYYCAADVYDGEYILDYDYWGQGTQVTVSS”, the “polyreactivity (PSR sort gate)” value is given as “low polyreactivity”.

On to “QVQLVESGGGLVQAGGSLRLSCAASGFTFGDNAMGWYRQAPGKERELVAAITSTGGSTNYADSVKGRFTISRDNAKNTVYLQINSLKPEDTAVYYCAAEWLYPHDGGYPRPMDYWGQGTQVTVSS”, for which the “polyreactivity (PSR sort gate)” value was “low polyreactivity”.

In the case of “QVQLVESGGGLVQAGGSLRLSCAASGFTFGDYVMGWYRQAPGKERELVAAITTSGTRTSYADSVKGRFTISRDNAKNTVYLQMNSLKPEDTAVYYCAAEHTNYYYFWQAHYYWGQGTQVTVSS”, the “polyreactivity (PSR sort gate)” value is “high polyreactivity”.

As to “QVQLVESGGGLVQAGGSLRLSCAASGFTFGGNAMGWYRQAPGKEREFVAAITRSGGSTYYADSVKGRFTISRDNAKNTVYLQMHSLKPEDTAVYYCAARRSYPLGYDYWGQGTQVTVSS”, the “polyreactivity (PSR sort gate)” value is listed as “high polyreactivity”.

As for “QVQLVESGGGLVQAGGSLRLSCAASGFTFGGNTMGWYRQAPGKERELVAAITQGGSSTYYADSVKGRFTISRDNAKNTVYLQMNSLKPEDTAVYYCNRGSPFGGLRPYDYWGQGTQVTVSS”, the “polyreactivity (PSR sort gate)” value is “high polyreactivity”.

Consider “QVQLVESGGGLVQAGGSLRLSCAASGFTFGGYAMGWYRQAPGKERELVAAINWSGGSTDYADSVKGRFTISRDIAKNTVYLQMNSLKPEDTAVYYCAAEGQDGRFYWGQGTQVTVSS”, for which the “polyreactivity (PSR sort gate)” value is recorded as “low polyreactivity”.

Regarding “QVQLVESGGGLVQAGGSLRLSCAASGFTFGGYAMGWYRQAPGKERELVAAISRSGGSTSYADSVKGRFTISRDNAKNTVYLQMNSLKPEDTAVYYCATLWTTKYWGQGTQVTVSS”, the “polyreactivity (PSR sort gate)” value is “high polyreactivity”.

“QVQLVESGGGLVQAGGSLRLSCAASGFTFGGYAMGWYRQAPGKERGLVAAISGSGGRTYYADSVKGRFTISRDNAKNTVYLQMNSLKPEDTAVYYCAAETVTRSFYSEYDYWGQGTQVTVSS”: the “polyreactivity (PSR sort gate)” value was “low polyreactivity”.

In the case of “QVQLVESGGGLVQAGGSLRLSCAASGFTFGGYAMGWYRQAPGKESEFVAAITGTGGNTFYADSVKGRFTISRDNAKNTVYLQMNSLKPEDTAVYYCAKTWYPWSRYGYYRRYDSWGQGTQVTVSS”, the “polyreactivity (PSR sort gate)” value is “low polyreactivity”.

As for “QVQLVESGGGLVQAGGSLRLSCAASGFTFGHYVMGWYRQAPGKERELVAAITLSGGGTYYADSVKGRFTISRDNAKNTVYLQMNSLKTEDTAVYYCAAVRRAEEFDYWGQGTQVTVSS”, the “polyreactivity (PSR sort gate)” value was “low polyreactivity”.

On to “QVQLVESGGGLVQAGGSLRLSCAASGFTFGLNVMGWYRQAPGKERELVAAISQSGGSTYYADSVKGRFTISRDNAKNTVYLQMNSLKPEDTAVYYCAVDYYPNPSYTVYDDEYWGQGTQVTVSS”, for which the “polyreactivity (PSR sort gate)” value was “low polyreactivity”.

For the sequence “QVQLVESGGGLVQAGGSLRLSCAASGFTFGLYAMGWYRQAPGKERELVAAITWSGGSTYYADSVKGRFTISRDNAKNTVYLQMNSLKPEDTAFYYCNRLSNNREYDYWGQGTQVTLSS”, the “polyreactivity (PSR sort gate)” value is listed as “high polyreactivity”.

With “QVQLVESGGGLVQAGGSLRLSCAASGFTFGLYAMGWYRQAPGKERELVAVISSSGGSTYYADSVKGRFTISRDNAKNTVYLQMNSLTPEDTAVYYCAKDFEAGDDYFAYDYWGQGTQVTVSS”, the “polyreactivity (PSR sort gate)” value is “low polyreactivity”.

Turning to “QVQLVESGGGLVQAGGSLRLSCAASGFTFGLYGMGWYRQAPGKERELVAAISSSGGDTYYADSVKGRFTISRDNAKNTVYLQMNSLKPEDTAVYYCAATADWATHDYWGQGTQVTVSS”, the “polyreactivity (PSR sort gate)” value is recorded as “low polyreactivity”.

Turning to “QVQLVESGGGLVQAGGSLRLSCAASGFTFGLYGMGWYRQAPGKERELVAAISSSGGDTYYADSVKGRFTISRDNAKNTVYLQMNSLKPEDTAVYYCAATADWATYDYWGQGTQVTVSS”, the “polyreactivity (PSR sort gate)” value was “low polyreactivity”.

“QVQLVESGGGLVQAGGSLRLSCAASGFTFGNAMGWYRQAPGKERELVAAITVNGGTTNYADSVKGRFTISRDNAKNTVYLQMNSLKPEDTAVYYCNVDTSYGAAGDYWGQGTQVTVSS”: the “polyreactivity (PSR sort gate)” value was “low polyreactivity”.

On to “QVQLVESGGGLVQAGGSLRLSCAASGFTFGPYAMGWYRQAPGKERELVAGITWSGASTYYADSVKGRFTISRDNAKNTVYLQMNSLKPEDTAVYYCARYYRLGSRYDYWGQGTQVTVSS”, for which the “polyreactivity (PSR sort gate)” value is “low polyreactivity”.

On to “QVQLVESGGGLVQAGGSLRLSCAASGFTFGRIAMGGYRQAPGKERELVASIDWSGGSTYYADSVKGRFTISRDNAKNTVYLQMNSLKPEDTAVYYCAVGPNSVGNRSYGFDYWGQGTQVTVSS”, for which the “polyreactivity (PSR sort gate)” value is “low polyreactivity”.

On to “QVQLVESGGGLVQAGGSLRLSCAASGFTFGRYAMGWYRPAPGKERELVPAISFSGGRTYYADSVKGRFTISRDNAKNTVYLQMNCMKPEDTAVYYCAARRSEEHVGRSTYARYDYWGQGTQVTVSS”, for which the “polyreactivity (PSR sort gate)” value is on record as “high polyreactivity”.

With “QVQLVESGGGLVQAGGSLRLSCAASGFTFGRYAMGWYRQAPGKEREFVAGITWSGGSTSYADSVKGRFTISRDNAKNTVYLQMNSLKREDTAVYYSATRARYTRVHGRRYAYDYWGQGTQVTVSS”, the “polyreactivity (PSR sort gate)” value is “high polyreactivity”.

With “QVQLVESGGGLVQAGGSLRLSCAASGFTFGRYAMGWYRQAPGKERELVAAISRTGGRTYYADSVKGRFTISRDNAKNTVYLQMNSLKPEDTAVYYCAADKGGTYFNGDSWGQGTLVTVSS”, the “polyreactivity (PSR sort gate)” value was “high polyreactivity”.

As to “QVQLVESGGGLVQAGGSLRLSCAASGFTFGRYARGWYRQAPGKERELVAAISRGGSSTYYADSVKGRFTISRDNAKNTVYLQMNSLKPEDTAVYYCNKVIIWARFDYWGQGTQVTVSS”, the “polyreactivity (PSR sort gate)” value is “high polyreactivity”.

In the case of “QVQLVESGGGLVQAGGSLRLSCAASGFTFGSNAMGWYRQAPGKERELVAAISSGDSTHYADSVKGRFTISRDNAQNTVYLQMNSLKPEDTAVYYCNADNILYWSTLDYWGQGTQVTVSS”, the “polyreactivity (PSR sort gate)” value is listed as “low polyreactivity”.

On to “QVQLVESGGGLVQAGGSLRLSCAASGFTFGSNAMGWYRQAPGKERELVADITVSGGSTYYADSVKGRFTISRDNAKNTVYLQMNSLKPEDTAVYYCAKDPRTYLDYDYWGQGTQVNVSS”, for which the “polyreactivity (PSR sort gate)” value is on record as “low polyreactivity”.

For the sequence “QVQLVESGGGLVQAGGSLRLSCAASGFTFGSNTMGWYRQAPGKERELVAAITTSGDSTYYADSVKGRFTISRDNAKNTVYLQMNSLKPEDTAVYYCAARTYYQGGYYYWGPGTQVTVSS”, the “polyreactivity (PSR sort gate)” value is “high polyreactivity”.

Turning to “QVQLVESGGGLVQAGGSLRLSCAASGFTFGSYAMGWYRQAPGKERELVAAITYRGGSTYYADSVKGRFTISRDNAKNTVYLQMNSLKPEDTAVYYCAADSRRKGNYWGQGTQVTVSS”, the “polyreactivity (PSR sort gate)” value was “high polyreactivity”.

Turning to “QVQLVESGGGLVQAGGSLRLSCAASGFTFGTYAMGWYRQAPGKERELVAAISARGGSTYYADSVKGRFTISRDNAKNTVYLQMNSLKPEDTAVYYCAAYYGRHVTPPTGYDYWGQGTQVTVSS”, the “polyreactivity (PSR sort gate)” value was “high polyreactivity”.

Turning to “QVQLVESGGGLVQAGGSLRLSCAASGFTFGTYAMGWYRQAPGKERELVAAITDGGGSTYYADSVKGRFSISRDNAKNTVYLQMNSLKPEDTAVYYCAAEFGYGWYTWLTGNDYWGQGTQVTVSS”, the “polyreactivity (PSR sort gate)” value is recorded as “low polyreactivity”.

As to “QVQLVESGGGLVQAGGSLRLSCAASGFTFGTYNMGWSRQAPGKERELVASISRRGGRTDYADSVKGRFTISRHNAKNTVYLQMNSLKPEDTAVYYCNAAYPYGGFPYDYWGQGTQVTVSS”, the “polyreactivity (PSR sort gate)” value is listed as “high polyreactivity”.

For “QVQLVESGGGLVQAGGSLRLSCAASGFTFGVYAMGWYRQAPGKERELVAAISTTVGSTYYADSVKGRFTISRDNAKNTVYLEMNSLKPEDTAVYYCAAEYTGYINYYIYEYWGQGTQVTVSS”, the “polyreactivity (PSR sort gate)” value is on record as “low polyreactivity”.

For the sequence “QVQLVESGGGLVQAGGSLRLSCAASGFTFGVYAMGWYRQAPGKERELVAAITATGGSTYYADSVKGRFTISRDNAKNTVYLQMNSLKPEDTAVYYCAADLDGTLSVYDYHTTGDDYWGQGTQVTVSS”, the “polyreactivity (PSR sort gate)” value is recorded as “low polyreactivity”.

Take “QVQLVESGGGLVQAGGSLRLSCAASGFTFGVYAMGWYRQAPGKERELVAAITRSGGSTYYADSVKGRFTISRDNAKNTVYLQMNSLKPEDTAVYYCASRARDHYGYWGQGTQVTVSS”: the “polyreactivity (PSR sort gate)” value was “high polyreactivity”.

For the sequence “QVQLVESGGGLVQAGGSLRLSCAASGFTFGVYAMGWYRQAPGKERELVAAITWSGGRTYYADSVKGRFTISRDNAKNTVYLQMNSLKPEDTAVYYCAAVFYRYNAVRYDYWGQGTQVTVSS”, the “polyreactivity (PSR sort gate)” value is on record as “high polyreactivity”.

For “QVQLVESGGGLVQAGGSLRLSCAASGFTFGVYAMGWYRQAPGKERELVATISSSGSTNYADSVKGRFTISRDNAQNPVYLQMNSLKPEDTAVYYCAVYYLYRRRQYYYWGQGTQVTVSS”, the “polyreactivity (PSR sort gate)” value was “low polyreactivity”.

For the sequence “QVQLVESGGGLVQAGGSLRLSCAASGFTFGWNAMGWYRQAPGKERELVAAITSGGITNYADSVKGRFTISRDNAKNTVYLQMNSLKPEDTAVYYCNARPTSRRSWYYWKGYDYWGQGTQVTVSS”, the “polyreactivity (PSR sort gate)” value is recorded as “high polyreactivity”.

On to “QVQLVESGGGLVQAGGSLRLSCAASGFTFGWYAMGWYRPAPGKERELVAAITTSGGRTNYADSVKGRFTISRDNAKNTVYLQMNSLKPEDTAVYYCNADSPYYVGGFDYWGQGTQVTVSS”, for which the “polyreactivity (PSR sort gate)” value is reported as “low polyreactivity”.

Turning to “QVQLVESGGGLVQAGGSLRLSCAASGFTFGWYAMGWYRQSPGKERELVAAISYSGGSTYYADSVKGRFTISRDNAKNTVYLQMNSLKPEDTAVYYCNAVLRLRVDSWGQGTQVTVSS”, the “polyreactivity (PSR sort gate)” value is given as “high polyreactivity”.

For the sequence “QVQLVESGGGLVQAGGSLRLSCAASGFTFGYNDMGWYRQAPGKERELVAGIRSGDDTNYADSVKGRFTISRDNAKNTVYLQMNSLKPEDTAVYYCAVGYGDYLYYDYDYWGQGTQVTVSS”, the “polyreactivity (PSR sort gate)” value was “low polyreactivity”.

Turning to “QVQLVESGGGLVQAGGSLRLSCAASGFTFGYNEMGWYRQAQGKERELVAGIRSGDDTNYADSVKGRFTISRDNAKNTVYLQMNSLKPEDTAVYYCPRDPQFYLHTVPDGAYNYWGQGTQVTVSS”, the “polyreactivity (PSR sort gate)” value is recorded as “low polyreactivity”.

With “QVQLVESGGGLVQAGGSLRLSCAASGFTFGYYAMGWYRQAPGKERELVAAISWSGSSTYYSDSVKGRFTISRDNAKNTVYLQMNSLKPEATAVYYCAAELGDAYYYWGQGTQVTVSS”, the “polyreactivity (PSR sort gate)” value is on record as “high polyreactivity”.

In the case of “QVQLVESGGGLVQAGGSLRLSCAASGFTFGYYAMGWYRQAPGKERELVAAITNSGGSTYYADSVKGRFTISRDNAKNTVYLQMNSLKPEDTAVYYCAAEISILPFVTPDTIYGYWGQGTQVTVSS”, the “polyreactivity (PSR sort gate)” value is listed as “low polyreactivity”.
